Usually stoichiometry N stands for a count of units in the complex or per binding partner.

Among the data in article PMC10882061 are stoichiometry N values, retold here.

This test has as its target Env-K, stabilized HIV Env trimer of BG505 NFL2P gp140 with a C-terminal Peptide K (HIV-1 (BG505)). As to the kind of experiment: SEC; Sephacryl S-300 after lectin affinity; peaks of aggregates, trimers and monomers; pooled trimer fractions also run on BN-PAGE.

The substance “Env-K, stabilized HIV Env trimer of BG505 NFL2P gp140 with a C-terminal Peptide K” showed a stoichiometry N of 3.
